Patent publication US10012655B2, “Method for quantitating total HMGB1 protein in biological samples” (INSTITUT PASTEUR, priority 2008, dated 2018)

Tests used:
iDCs = assay: Phenotypic maturation of iDCs cultured with rh-HMGB1 or LPS (flow cytometry); format: cell-based, human
Description: FIG. 1 (a)-(e). aNK cells induce the maturation of primary immature HIV-1-infected DCs. (a) iDCs, generated from purified CD14^+ monocytes in the presence of IL-4 and GM-CSF, were cocultured during 24 h with aNK cells at different ratios. DC survival was determined by flow cytometry with the 7-AAD assay. Surviving DCs were identified as 7AAD^−CD56^− cells. Data represent three independent experiments and values are means±sd. (b) aNK cells induce the maturation of iDCs. Flow cytometry analysis of iDCs, which were either infected with R5-HIV-1 BaL (1 ng/ml of p24) for 3 h or uninfected, were incubated with rNK cells or aNK cells at a ratio of 1:5. Co-staining with HLA-DR and CD86 specific antibodies allowed the identification of mature DCs (CD86^brightHLA-DR^bright) Data from a representative experiment out of three independent experiments are shown. (c) The conditions of infection used in this study were those of a productive infection of iDCs, as shown at day 3 by a significant p24 detection in culture supernatant of infected iDCs and intracellular detection by flow cytometry of p24 in DC targeted by CD40 expression. […] The proportion of mDCs induced by LPS (DC0) (78.1% CD86^brightHLA-DR^bright) is shown as a positive control. […]
FIG. 3 (a)-(e). aNK-dependent maturation of HIV-1-infected iDCs is mediated by HMGB1 and involves RAGE. […] The maturation status of DCs was determined by flow cytometry with CD86 and HLA-DR—specific antibodies. […] Cells were then stained with anti-CD86, -HLA-DR, -CD80, -CD83, DC-LAMP and -CD40 antibodies and analyzed by flow cytometry. (c) Influence of rh-HMGB1 on cytokine and chemokine production (determined by MAP) by DCs. iDCs (10^6 cells/ml) were incubated for 48 h in medium or in presence of rh-HMGB1 (1 or 10 μg/ml). […] (e) iDC, DC0, uninfected or HIV-1-infected iDC cocultured for 24 h with aNK cells, were incubated with rh-HMGB1 (1 μg/ml) and subsequently stained with anti-RAGE antibodies and analyzed by flow cytometry. […]

HIV-2 = HIV-2 replication in infected iDCs, p24 ELISA in culture supernatant; format: cell-based; details: HIV-2-infected iDC, day 3 of infection
Description: FIGS. 6 (a), (b) and (c). Exogenous rh-HMGB1 triggers HIV-1 and HIV-2 replication in iDC. (a) HIV-1-infected iDC were cultured alone or in the presence of aNK cells for 3 days. Rh-HMGB1 (1 μg/ml) was added in some cultures. HIV replication was measured by p24 quantification in culture supernatant (b) HIV1-infected iDC were cultured alone or in the presence of aNK cells for 3 days. Blocking anti-HMGB1 antibodies (10 μg/ml) or glycyrrhizin (10 μg/ml) were added at culture initiation. HIV replication was measured by p24 quantification in culture supernatant. The mean±sd of three independent experiments is shown. Statistical comparisons were made with the non parametric Mann-Whitney test. * p<0.05; (c) HIV-2-infected iDC were cultured alone or in the presence of aNK cells for 3 days. Rh-HMGB1 (1 μg/ml) was added in some cultures. HIV replication was measured by p24 quantification in culture supernatant. […]
2—NK-DC cocultures: cells were harvested, washed three times with RPMI containing 10% FCS and, when indicated, aNK cells were added at a NK:DC ratio of 1:5. […] NK-DC cocultures lasted 3 to 7 days before quantification of viral production in culture supernatants.
3—Quantification of HIV-2 viral production: the concentration of HIV-2 particles in the supernatants was determined with the p24 ELISA kit (Ingen, Belgium).

B1: rh-HMGB1: recombinant human HMGB1 protein (R&D Systems) (protein, UniProt P09429 1-215, looked up)
High mobility group protein B1: MGKGDPKKPRGKMSSYAFFVQTCREEHKKKHPDASVNFSEFSKKCSERWKTMSAKEKGKFEDMAKADKARYEREMKTYIPPKGETKKKFKDPNAPKRPPSAFFLFCSEYRPKIKGEHPGLSIGDVAKKLGEMWNNTAADDKQPYEKKAAKLKEKYEKDIAAYRAKGKPDAAKKGVVKAEKSKKKKEEEEDEEDEEDEEEEEDEEDEDEEEDDDDE
iDCs; 10 μg/ml, 48 h of culture, medium alone 65%
  percentage of CD86bright HLA-DRbright DCs: 71%
iDCs; 24 h with 1 to 10 μg/ml, similar at 48 h
  phenotypic maturation of iDC: did not induce phenotypic maturation of iDC
iDCs; rh-HMGB1-treated DCs, 48 h, compared with DC0
  maturation status by CD80, CD83 and DC-lamp expression: not fully mature
HIV-2
  HIV-2 viral replication (p24 in supernatant): slight increase in viral replication
